What all share (type): cell-based
One assay has as its system Caspase-3. Kind of assay: Caspase-3 enzymatic activity in H9c2 cardiac myoblasts. An excerpt: After ethical committee approval, all patients in this study gave written consent for sample collection and molecular analysis prior to inclusion. Patients were carefully selected by physicians from the Department of Cardiology, Toulouse University Hospital, prior to coronary by-pass surgery. Bioinformatics. Microarray expression data from human heart samples were downloaded from the GEO repository (GSE1145). This series consisted of 107 myocardial samples collected from patients undergoing cardiac transplantation whose failure arises from different etiologies (e.g. idiopathic dilated cardiomyopathy, ischemic cardiomyopathy, valvular cardiomyopathy, and hypertrophic cardiomyopathy) and from “normal” organ donors whose hearts cannot be used for transplants. Arrays were intensity normalized and hierarchical clustering (average group linkage, Pearson correlation, threshold r=0.8) was applied to identify groups of co-expressed genes. ApoO expression levels were plotted for the 107 human hearts tested and used to define relevant molecular pathways using both Toppgene and Ingenuity Pathway Analysis (Ingenuity systems, Redwood City, Calif., USA). ApoO subcellular localization was predicted using Mitopred, mitoprot and YLoc. Animals: All animal Studies followed the INSERM Institute Animal Facility guidelines and were approved by the animal care committees of the INSERM I2MC UMR 1048. All animal procedures were performed according to the guidelines of the French Ministry of Agriculture. Animals were housed at the Toulouse I2MC animal facility in a room lit 12 h per day (6 AM-6 PM) at an ambient temperature of 22+/−1° C. […] All ApoO sequences within the expression vectors were verified by DNA double strand sequencing using ABI PRISM®BigDye™ Terminator version 3.1 Ready reaction cycle sequencing kit (Life Technologies SAS, Villebon sur Yvette) and loaded on an ABI 3130XL DNA sequencing instrument (Life Technologies SAS, Villebon sur Yvette). […]

The test system of assay [1] is long-chain acyl-CoA synthetase (ACSL). The assay is described as follows: Acyl-CoA synthetase activity in cardiac myoblasts. To be noted: ApoO cells vs control (FIG. 6C). From the text: After ethical committee approval, all patients in this study gave written consent for sample collection and molecular analysis prior to inclusion. Patients were carefully selected by physicians from the Department of Cardiology, Toulouse University Hospital, prior to coronary by-pass surgery. Bioinformatics. Microarray expression data from human heart samples were downloaded from the GEO repository (GSE1145). This series consisted of 107 myocardial samples collected from patients undergoing cardiac transplantation whose failure arises from different etiologies (e.g. idiopathic dilated cardiomyopathy, ischemic cardiomyopathy, valvular cardiomyopathy, and hypertrophic cardiomyopathy) and from “normal” organ donors whose hearts cannot be used for transplants. Arrays were intensity normalized and hierarchical clustering (average group linkage, Pearson correlation, threshold r=0.8) was applied to identify groups of co-expressed genes. […] All ApoO sequences within the expression vectors were verified by DNA double strand sequencing using ABI PRISM®BigDye™ Terminator version 3.1 Ready reaction cycle sequencing kit (Life Technologies SAS, Villebon sur Yvette) and loaded on an ABI 3130XL DNA sequencing instrument (Life Technologies SAS, Villebon sur Yvette). […]

A further assay has as its system glioblastoma cells. The assay is described as follows: Transmission electron microscopy of glioblastoma cells. The method, then: Transmission electron microscopy of control (left) and ApoO expressing (right) cells incubated overnight with 100 μM of palmitate (n=6). Black arrows indicate lipid droplets.
Transmission electron microscopy of control (left) and ApoO expressing (right) cells. Black arrows indicate blebs (n=3).

B1: ApoO: 198-amino acid apolipoprotein, SEQ ID NO: 1; tested by overexpression from expression vectors or transgene (protein, listed as Homo sapiens)
chain: MFKVIQRSVGPASLSLLTFKVYAAPKKDSPPKNSVKVDELSLYSVPEGQSKYVEEARSQLEESISQLRHYCEPYTTWCQETYSQTKPKMQSLVQWGLDSYDYLQNAPPGFFPRLGVIGFAGLIGLLLARGSKIKKLVYPPGFMGLAASLYYPQQAIVFAQVSGERLYDWGLRGYIVIEDLWKENFQKPGNVKNSPGTK
As for B1, the “activity of Caspase-3” value in the assay on Caspase-3 (ApoO cells vs control (FIG. 9g)) is “increase”. Moreover, the “apoptotic effect of increasing doses of palmitate (Caspase-3 activity)” value with Caspase-3 (ApoO overexpressing cells vs control (FIG. 9h)) is given as “dramatically amplified”. Further, the “long-chain acyl-CoA synthetase (ACSL) activity” value in assay [1] is “strongly increased”. In the assay on glioblastoma cells (cells which express ApoO vs cells which do not (FIG. 16)), the “apoptosis (membrane blebbing)” value is listed as “apoptosis occurs”. Besides, in the assay with glioblastoma cells (expression or overexpression of ApoO in glioblastoma cells), the mitochondrial morphology result is reported as “development of abnormal mitochondria”. The lipid accumulation entry in the assay with glioblastoma cells (glioblastoma cells expressing ApoO, in the presence of palmitate (FIG. 15)) is given as “lipid accumulate”.

(Values after US10272135B2, “Apolipoprotein O and fragments thereof for inducing apoptosis in a cancerous cell” (INSERM (INSTITUT NATIONAL DE LA SANTÉ ET DE LA RECHERCHE …, priority 2014, dated 2019).)
